Assay results from US20090324700A1, “METHODS AND COMPOSITIONS FOR THE INHIBITION OF CATHEPSINS” (priority 2003, published 2009).

Columns and labels:
[1] = test system: NIH3T3 cells; assay: TNF-α death assays, NIH3T3 cells; type: cell-based; conditions: TNF-α + Z-VAD.fmk 50 μM; FIG. 9B, 10B
Protocol: TNF-α death assays. NIH3T3 cells were transduced with MIGR1 retrovirus (Zhang and Ren, 1998) encoding either GFP alone, or Spi2A in the forward (sense) or reverse (antisense) orientation and stable clones generated, as described previously (Liu et al., 2003). Cells were treated with TNF-α (R&D) and after 16 h the number of live GFP-positive adherent cells were counted by flow cytometry (Liu et al., 2003). Live cells were defined as those that excluded propidium iodide (PI-negative) and had the appropriate size, as defined by forward and side light scatter characteristics. Caspase activity was inhibited by pre-treatment of cells or extracts for 1 h with Z-VAD.fmk (ICN Biomedicals Inc; 50 μM). […] In anti-sense experiments the level of Spi2A mRNA was quantitated by real-time PCR using primers and probes specific for Spi2A (Inglis et al., 1991) and cyclofilin A control mRNA (Medhurst et al., 2000), 4 h after treatment with Z-VAD.fmk ([…]) and TNF-α (10 ng/ml), as described previously (Liu et al., 2003).

[2] = test system: RelA^−/− MEFs; assay: Lysosome internal pH (acridine orange, flow cytometry), RelA^−/− MEFs; type: cell-based, mouse; conditions: TNF-α 0.2 ng/ml, CHX 0.1 μg/ml; FIG. 8
Protocol: FIG. 8. Spi2A offers partial protection of lysosomal de-acidification in […]. RelA^−/− MEFs were transduced by retrovirus encoding GFP alone or Spi2A as indicated by the percentage AO-low cells after treatment with TNF-α (0.2 ng/ml) and CHX (0.1 μg/ml). The percentage of intact lysosomes was determined by staining with AO as has been described previously (Zhao et al., 2000). Briefly, cells were incubated with AO (5 μg/ml), washed and collected for flow cytometric assessment of uptake into intact lysosomes as indicated by red fluorescence (FL3 channel).
The inhibitory reaction was too fast to be measured using our conventional spectrophotometer. […] Lysosome internal pH was measured by staining with the weak basic, lysosomotropic dye—acridine orange (AO)— and flow cytometry (Zhao et al., 2000). Increase in lysosomal pH results a corresponding decrease in AO red fluorescence and the appearance of AO-low cells. It was shown that TNF-R1 cross-linking results in the appearance of AO-low cells in Rel A^−/− MEFs transduced with control retrovirus (GFP) (Supplementary FIG. 4). […] The appearance of AO-low cells can be interpreted as lysosomal rupture, and so it is possible that Spi2A in some way protects lysosomes from damage induced by TNF-α.

[3] = test system: RelA^−/− MEFs; assay: Mitochondrial membrane potential (JC-1), RelA^−/− MEFs; type: cell-based, mouse; conditions: TNF-α 0.2 ng/ml, CHX 0.1 μg/ml; FIG. 5C
Protocol: Death effector assays. Death effector pathways were induced in […] MEFs by treatment TNF-α (0.2 ng/ml) and CHX (0.1 μg/ml). Assays for executioner proteases (caspases and cathepsin B) were performed on crude cytoplasmic extracts (Stegh et al., 2000). Briefly, MEFs (10^6) were lysed in 10 mM Tris-Cl, pH 7.5, 100 mM NaCl, 1 mM EDTA, 0.01% Triton X-100 (50 μl) for 30 min on ice then centrifuged at 15,000 g for 30 min at 4° C. and the supernatant recovered. Protein concentration was determined by Lowry assay (DC-protein assay kit, Biorad). Western immunoblots were performed on crude cytosolic extracts (50 μg per lane) using standard protocols and probed with the following antibodies: goat anti-mouse Bid antiserum (1 μg/ml; R&D systems), rabbit anti-human caspase 9 antiserum (2 μg/ml; Cell Signaling Technology), rabbit anti-human caspase 3 antiserum (2 μg/ml; Cell Signaling Technology), mouse anti-human caspase 8 monoclonal antibody clone 12F5 (1 μg/ml; Axxora). […]
Mitochondrial membrane potential and ROS production were measured using the fluorescent dyes JC-1 (3 μg/ml) and dihydroethidium (HE) (5 μM)(Molecular Probes) respectively, and flow cytometry according to the manufacturer's instructions.

B1: Spi2A: murine Spi2A polypeptide, SEQ ID NO:2; purified as C-terminal 3×FLAG protein or expressed from MIGR1 retrovirus in cells and bone-marrow chimeras (protein, listed as Mus musculus)
chain: MAGVSPAVFGCPDVTLGRNTAVREVQENVTSVDSLTLVSSNTDFAFSLYRKLVLKNPDENVVFSPFSICTALALLSLGAKSNTLKEILEGLKFNLTETPEPDIHQGFRYLLDLLSQPGNQVQISTGSALFIEKHLQILAEFKEKARALYQAEAFTADFQQPLKATKLINDYVSNHTQGKIKELISGLKESTLMVLVNYIYFKGKWKNPFDPNDTFKSEFYLDEKRSVIVSMMKTGYLTTPYFRDEELSCTVVELKYTGNASAMFILPDQGRMQQVEASLQPETLRKWKNSLKPRMIHELRLPKFSISTDYSLEHILPELGIREVFSTHADLSAITGTKDLRVSQVVHKAVLDVAEKGTEAAAATGMAGVGCCAVFDFLEIFFNRPFLMIISDTKAHIALFMAKVTNPERSTNFPNGEGASSQRLESKRLCFGDPLCLIGQ
modifications: C-terminal 3xFLAG tag
notes: purified as C-terminal 3×FLAG protein or expressed from MIGR1 retrovirus in cells and bone-marrow chimeras
- Survival against TNF-α in the absence of caspase activity, transduced clones vs GFP [1]: markedly improved survival
- Appearance of AO-low cells (lysosomal de-acidification) [2]: less AO-low cells
- mitochondrial depolarization [3]: virtually abrogated
